Results reported in the RNAGym collection of RNA variant scans (doi:10.1073/pnas.2313332121).
Variants at the floor of the assay were thinned out.

B1: TPR 5TU (parent)
chain: GGAUCUUCUCGAUCUAACAAAAAAGACAAAUCUGCCACAAAGCUUGAGAGCAUCUUCGGAUGCAGAGGCGGCAGCCUUCGGUGGCGCGAUAGCGCCAACGUUCUCAACUAUGACACGCAAAACGCGUGCUCCGUUGAAUGGAGUUUAUCAUG

Variants of: B1
Assay: polymerase ribozyme fitness, log enrichment relative to wild type (log ratio); higher = more active; in vitro selection for triplet polymerase activity
In short: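 The heterodimeric triplet polymerase ribozyme's subunits were each mutagenized into PCR-built libraries and transcribed. Every library was selected once, in triplicate, by annealing with a biotinylated primer, the partner subunit and triplets, incubating frozen at −7 °C, gel-excising extended constructs, capturing on streptavidin beads and running RT-PCR. Input and output libraries were Illumina-sequenced, with genotypes kept only at ≥10 input reads and ≥1 read per output. Fitness, from inverse-variance-weighted replicate averages, is the base-2 logarithm of genotype enrichment over wild-type enrichment.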

| Variant | polymerase ribozyme fitness (log ratio) |
| --- | --- |
| GGAUCUUCUCGAUCUAACAAAAAAGACAAAUCUGCCACAAAGCUUGAGAGCAUCUUCGGAUGCAGAGGCGGCAGCCUUCGGUGGCGCGAUAUCGCCAACGUUCUCAACUAUGACACGCAAAACGCGUGCUCCGUUGAAUGCAGUUUAUCAUG [G92U G141C] | -1.87 |
| GGAUCUUCUCGAUCUAACAAAAAAGACAAAUCUGCCACAAAGCUUGAGAGCAUCUUCGGAUGCAGAGGCGGCAGCCUUCGGUGGCGCGAUAUCGCCAACGUUCUCAACUAUGACACGCAAAACGCGUGCUCCGUUGAAUGAAGUUUAUCAUG [G92U G141A] | -1.81 |
| GGAUCUUCUCGAUCUAACAAAAAAGACAAAUCUGCCACAAAGCUUGAGAGCAUCUUCGGAUGCAGAGGCGGCAGCCUUCGGUGGCGCGAUAGAGCCAACGUUCUCAACUAUGACACGCAACACGCGUGCUCCGUUGAAUGGAGUUUACCAUG [C93A A121C U148C] | -2.37 |
| GGAUCUUCUCGAUCUAACAAAAAAGACAAAUCUGCCACAAAGCUUGAGAGCAUCUUCGGAUGCAGAGGCGGCAGCCUUCGGUGGCGCGAUAUCGCCAACGUUCUCAACUAUGACACGCAAAACGCGUGCUCCGUUGAAUGGAGUAUAUCAUG [G92U U145A] | 0.602 |
| GGAUCUUCUCGAUCUAACAAAAAAGACAAAUCUGCCACAAAGCUUGAGAGCAUCUUCGGAUGCAGAGGCGGCAGCCUUCGGUGGCGCGAUAUCGCCAACGUUCUCAACUAUGACACGCAAAACGCGUGCUCCGUUGAAUGGAGUUAAUCAUG [G92U U146A] | -0.393 |
| GGAUCUUCUCGAUCUAACAAAAAAGACAAAUCUGCCACAAAGCUUGAGAGCAUCUUCGGAUGCAGAGGCGGCAGCCUUCGGUGGCGCGAUAUCGCCAACGUUCUCAACUAUGACACGCAAAACGCGUGCUCCGUUCAAUGGAGUUUAUCAUG [G92U G136C] | -3.44 |
| GGAUCUUCUCGAUCUAACAAAAAAGACAAAUCUGCCACAAAGCUUGAGAGCAUCUUCGGAUGCAGAGGCGGCAGCCUUCGGUGGCGCGAUAUCGCAAACGUUCUCAACUAUGACACGCAAAACGCGUGCUCCGUUCAAUGGAGUUUAUCAUG [G92U C96A G136C] | -3.56 |
| GGAUCUUCUCGAUCUAACAAAAAAGACAAAUCUGCCACAAAGCUUGAGAGCAUCUUCGGAUGCAGAGGCGGCAGCCUUCGGUGGCGCGAUAUCGCCAACGAUCUCAACUAUGACACGCUAAACGCGUGCUCCGUUGAAUGGAUUUUAUCAUG [G92U U101A A119U G143U] | -3.62 |
| GGAUCUUCUCGAUCUAACAAAAAAGACAAAUCUGCCACAAAGCUUGAGAGCAUCUUCGGAUGCAGAGGCGGCAGCCUUCGGUGGCGCGAUAGAGCCAACGUUCUCAUCUGUGAUACGCAAAACGCGGGCUCCGUUGAAUGGAGUUUAUCAUG [C93A A107U A110G C114U U127G] | ≤ -4.2 |
| GGAUCUUCUCGAUCUAACAAAAAAGACAAAUCUGCCACAAAGCUUGAGAGCAUCUUCGGAUGCAGAGGCGGCAGCCUUCGGUGGCGCGAUAUCGCCAACGUUCGCAACUAUGACACGCAAAACGCGUGCUCUGUUGAAUGGAGUUUAUCAUG [G92U U104G C132U] | -2.5 |
| GGAUCUUCUCGAUCUAACAAAAAAGACAAAUCUGCCACAAAGCUUGAGAGCAUCUUCGGAUGCAGAGGCGGCAGCCUUCGGUGGCGCGAUAGAGCCAACGUUCUCAACUAUGACACGCAAAACGCGUGCUCCGUUGAAUGGCGUUUAUCAUG [C93A A142C] | -1.78 |
| GGAUCUUCUCGAUCUAACAAAAAAGACAAAUCUGCCACAAAGCUUGAGAGCAUCUUCGGAUGCAGAGGCGGCAGCCUUCGGUGGCGCGAUAGAGCCAACGUUCUCAACUAUGACACGCAAAACGCGUGCUCCGUUGAAUGGGGUUUAUCAUG [C93A A142G] | -2.77 |
| GGAUCUUCUCGAUCUAACAAAAAAGACAAAUCUGCCACAAAGCUUGAGAGCAUCUUCGGAUGCAGAGGCGGCAGCCUUCGGUGGCGCGAUAUCCCCAACGUUCUCGACUAUGACACGCAAAAAGCGUGCUCCGUUGAAUGGAGUCUAUCAUG [G92U G94C A106G C123A U145C] | -1.97 |
| GGAUCUUCUCGAUCUAACAAAAAAGACAAAUCUGCCACAAAGCUUGAGAGCAUCUUCGGAUGCAGAGGCGGCAGCCUUCGGUGGCGCGAUAGAGCCAACGUUCUCAACUAUGUCACGCAAAACGCGUGCUCCGUUGAAUGGAGUUUAUCAUG [C93A A113U] | -4.07 |
| GGAUCUUCUCGAUCUAACAAAAAAGACAAAUCUGCCACAAAGCUUGAGAGCAUCUUCGGAUGCAGAGGCGGCAGCCUUCGGUGGCGCGAUAUCGCCAACGUUCUCAACUAUGACACGAAAAACGCGUGCUCCGUUGAAUGGAGUUUAUCAUG [G92U C118A] | -1.05 |
| GGAUCUUCUCGAUCUAACAAAAAAGACAAAUCUGCCACAAAGCUUGAGAGCAUCUUCGGAUGCAGAGGCGGCAGCCUUCGGUGGCGCGAUAUCGCUUACGUUCUCAACUAUGACUCGCAAUACGCGUGCUCCGUUGAAUGGAGUUUAUCAUG [G92U C96U A97U A115U A121U] | -2.82 |
| GGAUCUUCUCGAUCUAACAAAAAAGACAAAUCUGCCACAAAGCUUGAGAGCAUCUUCGGAUGCAGAGGCGGCAGCCUUCGGUGGCGCGAUAUCGCCAACGUUCUCAACUAUGACACGCAAAACGUGUGCUCCGUUGAAUGGAGUUUAUCAUG [G92U C125U] | -1.4 |
| GGAUCUUCUCGAUCUAACAAAAAAGACAAAUCUGCCACAAAGCUUGAGAGCAUCUUCGGAUGCAGAGGCGGCAGCCUUCGGUGGCGCGAUAUCGCCAAUGUUCUCAACUAUGACACGCAAAACGCGUGCUCCGUUGAAUGGAGGUUAUCAUG [G92U C99U U144G] | 0.0398 |
| GGAUCUUCUCGAUCUAACAAAAAAGACAAAUCUGCCACAAAGCUUGAGAGCAUCUUCGGAUGCAGAGGCGGCAGCCUUCGGUGGCGCGAUAUCGCCAACGGUCUCAACUAUGACACGCAAAACGCGUGCUCCGUUGAAUGGAGUUUAUCAUG [G92U U101G] | 0.0893 |

| Variant | polymerase ribozyme fitness (log ratio) |
| --- | --- |
| GGAUCUUCUCGAUCUAACAAAAAAGACAAAUCUGCCACAAAGCUUGAGAGCAUCUUCGGAUGCAGAGGCGGCAGCCUUCGGUGGCGCGAUAUCGCCAACGUUCUCAACUAUGACACGCAAAACGCGUGCUCCUUUGAAUGGAGUUUAUCAUG [G92U G133U] | -3.41 |
| GGAUCUUCUCGAUCUAACAAAAAAGACAAAUCUGCCACAAAGCUUGAGAGCAUCUUCGGAUGCAGAGGCGGCAGCCUUCGGUGGCGCGAUAUCGCCAACGUUCGCAACUAUGACACGCAAAACGCGUGCUCCGUUGAAUGGAGUUUAUCAUG [G92U U104G] | -0.858 |
| GGAUCUUCUCGAUCUAACAAAAAAGACAAAUCUGCCACAAAGCUUGAGAGCAUCUUCGGAUGCAGAGGCGGCAGCCUUCGGUGGCGCGAUAUCGCCAACGUUCUCAACUAUGACACGCAAAACGCGUGCUCCGUUGAAUGGAGUUUAACAUG [G92U U148A] | -2.71 |
| GGAUCUUCUCGAUCUAACAAAAAAGACAAAUCUGCCACAAAGCUUGAGAGCAUCUUCGGAUGCAGAGGCGGCAGCCUUCGGUGGCGCGAUAGAGCCAACGUUCUCAACUAUGACACGCAUAACGCGUGCUCCGUUGAAUGGAGUUUAUCAUG [C93A A120U] | -3.4 |
| GGAUCUUCUCGAUCUAACAAAAAAGACAAAUCUGCCACAAAGCUUGAGAGCAUCUUCGGAUGCAGAGGCGGCAGCCUUCGGUGGCGCGAUAGAGCCAACGUUCUCAUCUAUGACACGCAAAACGCCUGCUCCGUUGAAUGGAGUUUAUCGUG [C93A A107U G126C A150G] | ≤ -4.2 |
| GGAUCUUCUCGAUCUAACAAAAAAGACAAAUCUGCCACAAAGCUUGAGAGCAUCUUCGGAUGCAGAGGCGGCAGCCUUCGGUGGCGCGAUAGAGCCUACGUUCUCAACUAUGACACGCAAAACGCGUACUCCGUUGAAUGGAGUUUAUCAUG [C93A A97U G128A] | ≤ -4.2 |
| GGAUCUUCUCGAUCUAACAAAAAAGACAAAUCUGCCACAAAGCUUGAGAGCAUCUUCGGAUGCAGAGGCGGCAGCCUUCGGUGGCGCGAUAUCGCCAACGUUCUCAACUAUGACACGCAAAACUCGUGCUCCGUUGAAUGCAGUUUAUCAUG [G92U G124U G141C] | -0.283 |
| GGAUCUUCUCGAUCUAACAAAAAAGACAAAUCUGCCACAAAGCUUGAGAGCAUCUUCGGAUGCAGAGGCGGCAGCCUUCGGUGGCGCGAUAGAGCCAACGUUCUCAACUAUGACACGCAAAACGCGUGCUCCGUUGAUUGGAGUUUAUCAUG [C93A A138U] | -4.18 |
| GGAUCUUCUCGAUCUAACAAAAAAGACAAAUCUGCCACAAAGCUUGAGAGCAUCUUCGGAUGCAGAGGCGGCAGCCUUCGGUGGCGCGAUAUCGCCAACGUUCUCAAUUAUGACACGCAAAACGGGUGCUCCGUUGAAUCGAGUUUAUCAUG [G92U C108U C125G G140C] | ≤ -4.2 |
| GGAUCUUCUCGAUCUAACAAAAAAGACAAAUCUGCCACAAAGCUUGAGAGCAUCUUCGGAUGCAGAGGCGGCAGCCUUCGGUGGCGCGAUAUCGUCAACGUUCUCAACUAUGACACGCAAAACGCGUGCUCCGUUGUAUGGAGUUUAUCAUG [G92U C95U A137U] | -4.11 |
| GGAUCUUCUCGAUCUAACAAAAAAGACAAAUCUGCCACAAAGCUUGAGAGCAUCUUCGGAUGCAGAGGCGGCAGCCUUCGGUGGCGCGAUAUCGCCAACGUUCUCAACUAUGACAUGCAAAACGCGUGCUCCGUUGAAUGGAGUUUAUCAUG [G92U C116U] | 0.0946 |
| GGAUCUUCUCGAUCUAACAAAAAAGACAAAUCUGCCACAAAGCUUGAGAGCAUCUUCGGAUGCAGAGGCGGCAGCCUUCGGUGGCGCGAUAGAGCCAACGUUCUCGACUAUGACACGCAAAACGCGUGCUCCGUUGAAUGGAGUUUAUCAUG [C93A A106G] | -1.9 |
| GGAUCUUCUCGAUCUAACAAAAAAGACAAAUCUGCCACAAAGCUUGAGAGCAUCUUCGGAUGCAGAGGCGGCAGCCUUCGGUGGCGCGAUAUCGCCAACGUUCUCAACUAUGACACGCAAAAAGCGUGCUCCGUUGAAUGGAGUUUAUCAUG [G92U C123A] | -0.758 |
| GGAUCUUCUCGAUCUAACAAAAAAGACAAAUCUGCCACAAAGCUUGAGAGCAUCUUCGGAUGCAGAGGCGGCAGCCUUCGGUGGCGCGAUAUCGCCAACGUUCUCAACUAUCACACGCAAAACGCGUGCUCCGUUGAAUGGAGUUUAUCAUG [G92U G112C] | -2.95 |
| GGAUCUUCUCGAUCUAACAAAAAAGACAAAUCUGCCACAAAGCUUGAGAGCAUCUUCGGAUGCAGAGGCGGCAGCCUUCGGUGGCGCGAUAGAGCCAACGUUCUCCACUAUGACACGCAUAACGCGUGCUCCGUUGAAUGGAGUUUAUCAUG [C93A A106C A120U] | -2.8 |
| GGAUCUUCUCGAUCUAACAAAAAAGACAAAUCUGCCACAAAGCUUGAGAGCAUCUUCGGAUGCAGAGGCGGCAGCCUUCGGUGGCGCGAUAGAGCCAUCGUUCUCAACUAUGACACGCAAAACGGGUGCUUCGUUGAAUGGAGUUUAUCAUG [C93A A98U C125G C131U] | -2.4 |
| GGAUCUUCUCGAUCUAACAAAAAAGACAAAUCUGCCACAAAGCUUGAGAGCAUCUUCGGAUGCAGAGGCGGCAGCCUUCGGUGGCGCGAUAGAGCCAGCGUUCUCAACUAUGACACGCAAAACGCGUGCUCCGUUGAAUGGAGUUUAUCAUG [C93A A98G] | -1.81 |
| GGAUCUUCUCGAUCUAACAAAAAAGACAAAUCUGCCACAAAGCUUGAGAGCAUCUUCGGAUGCAGAGGCGGCAGCCUUCGGUGGCGCGAUAGAGCCAACGUUCUCAACUUUGACACGCAAAACGCGUGCUCCGUUGAAUGGAGUUUAUCAUG [C93A A110U] | -3.99 |
| GGAUCUUCUCGAUCUAACAAAAAAGACAAAUCUGCCACAAAGCUUGAGAGCAUCUUCGGAUGCAGAGGCGGCAGCCUUCGGUGGCGCGAUAGAGCCAACGUUCUCAACUAUGACACGCAAAACGCGUGCUCCGUUGAGUGGACUUUAUCAUG [C93A A138G G143C] | -3.66 |
